Assay results taken from publication PMC11873960, “Coupled Heterogeneity to Dimeric Site-Specific Binding by the POU-Family Transcription Factor OCT2” (The Journal of Physical Chemistry. B, 2025).

T1: OCT2 DBD (POU domain) (Homo sapiens, UniProt P09086 195-357)
T1 sequence: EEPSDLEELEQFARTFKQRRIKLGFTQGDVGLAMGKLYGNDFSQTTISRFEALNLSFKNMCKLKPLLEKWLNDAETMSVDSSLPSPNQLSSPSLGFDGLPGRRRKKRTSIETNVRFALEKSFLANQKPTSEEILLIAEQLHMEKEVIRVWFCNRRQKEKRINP


Key:
[1] = target: the molecule itself; assay: native gel or EMSA; 0.2 kbp DNA fragment with a single MORE site (10 nM) incubated overnight at 25 °C with graded OCT2 DBD (2-fold dilutions from 1 uM) in PBS; 4-20% gradient polyacrylamide gel; dimer assembled on DNA
OCT2 DBD (POU domain) [2] = target: T1, OCT2 DBD (POU domain); assay: fluorescence anisotropy; 0.35 M Na+, no poly[d(I-C)]; FP: 5 nM probe, 10 mM Bis-Tris pH 6.5, 0.01% BSA, 0.15-0.35 M NaCl, 25 C overnight, Hill fit with nH = 2 (macroscopic KD of dimer); EMSA: 10 nM DNA, PBS, 25 C o; conditions: protein: recombinant; tags: N-terminal His6 removed by thrombin; chain copies: 2; label: 5'-HEX; blunt; self-complementary, 2 copies of the strand
OCT2 DBD (POU domain) [3] = target: T1, OCT2 DBD (POU domain); assay: fluorescence anisotropy; 0.15 M Na+, no poly[d(I-C)]; text gives 3.2 +/- 1.4 nM; FP: 5 nM probe, 10 mM Bis-Tris pH 6.5, 0.01% BSA, 0.15-0.35 M NaCl, 25 C overnight, Hill fit with nH = 2 (macroscopic KD of dimer); EMSA: 10 nM DNA, PBS, 25 C o; conditions: protein: recombinant; tags: N-terminal His6 removed by thrombin; chain copies: 2; label: 5'-HEX; blunt; self-complementary, 2 copies of the strand
OCT2 DBD (POU domain) [4] = target: T1, OCT2 DBD (POU domain); assay: fluorescence anisotropy; 0.20 M Na+, 1 U poly[d(I-C)]; FP: 5 nM probe, 10 mM Bis-Tris pH 6.5, 0.01% BSA, 0.15-0.35 M NaCl, 25 C overnight, Hill fit with nH = 2 (macroscopic KD of dimer); EMSA: 10 nM DNA, PBS, 25 C o; conditions: protein: recombinant; tags: N-terminal His6 removed by thrombin; chain copies: 2; label: 5'-HEX; blunt; self-complementary, 2 copies of the strand
OCT2 DBD (POU domain) [5] = target: T1, OCT2 DBD (POU domain); assay: fluorescence anisotropy; 0.25 M Na+, no poly[d(I-C)]; FP: 5 nM probe, 10 mM Bis-Tris pH 6.5, 0.01% BSA, 0.15-0.35 M NaCl, 25 C overnight, Hill fit with nH = 2 (macroscopic KD of dimer); EMSA: 10 nM DNA, PBS, 25 C o; conditions: protein: recombinant; tags: N-terminal His6 removed by thrombin; chain copies: 2; label: 5'-HEX; blunt; self-complementary, 2 copies of the strand
OCT2 DBD (POU domain) [6] = target: T1, OCT2 DBD (POU domain); assay: fluorescence anisotropy; 0.25 M Na+, 1 U poly[d(I-C)]; FP: 5 nM probe, 10 mM Bis-Tris pH 6.5, 0.01% BSA, 0.15-0.35 M NaCl, 25 C overnight, Hill fit with nH = 2 (macroscopic KD of dimer); EMSA: 10 nM DNA, PBS, 25 C o; conditions: protein: recombinant; tags: N-terminal His6 removed by thrombin; chain copies: 2; label: 5'-HEX; blunt; self-complementary, 2 copies of the strand
OCT2 DBD (POU domain) [7] = target: T1, OCT2 DBD (POU domain); assay: fluorescence anisotropy; 0.15 M Na+, 1 U poly[d(I-C)]; FP: 5 nM probe, 10 mM Bis-Tris pH 6.5, 0.01% BSA, 0.15-0.35 M NaCl, 25 C overnight, Hill fit with nH = 2 (macroscopic KD of dimer); EMSA: 10 nM DNA, PBS, 25 C o; conditions: protein: recombinant; tags: N-terminal His6 removed by thrombin; chain copies: 2; label: 5'-HEX; blunt; self-complementary, 2 copies of the strand
OCT2 DBD (POU domain) [8] = target: T1, OCT2 DBD (POU domain); assay: fluorescence anisotropy; 0.175 M Na+, no poly[d(I-C)]; FP: 5 nM probe, 10 mM Bis-Tris pH 6.5, 0.01% BSA, 0.15-0.35 M NaCl, 25 C overnight, Hill fit with nH = 2 (macroscopic KD of dimer); EMSA: 10 nM DNA, PBS, 25 C o; conditions: protein: recombinant; tags: N-terminal His6 removed by thrombin; chain copies: 2; label: 5'-HEX; blunt; self-complementary, 2 copies of the strand
OCT2 DBD (POU domain) [9] = target: T1, OCT2 DBD (POU domain); assay: fluorescence anisotropy; 0.20 M Na+, no poly[d(I-C)]; FP: 5 nM probe, 10 mM Bis-Tris pH 6.5, 0.01% BSA, 0.15-0.35 M NaCl, 25 C overnight, Hill fit with nH = 2 (macroscopic KD of dimer); EMSA: 10 nM DNA, PBS, 25 C o; conditions: protein: recombinant; tags: N-terminal His6 removed by thrombin; chain copies: 2; label: 5'-HEX; blunt; self-complementary, 2 copies of the strand
OCT2 DBD (POU domain) [10] = target: T1, OCT2 DBD (POU domain); assay: fluorescence anisotropy; 0.35 M Na+, 1 U poly[d(I-C)]; text gives 0.18 +/- 0.06 uM; FP: 5 nM probe, 10 mM Bis-Tris pH 6.5, 0.01% BSA, 0.15-0.35 M NaCl, 25 C overnight, Hill fit with nH = 2 (macroscopic KD of dimer); EMSA: 10 nM DNA, PBS, 25 C o; conditions: protein: recombinant; tags: N-terminal His6 removed by thrombin; chain copies: 2; label: 5'-HEX; blunt; self-complementary, 2 copies of the strand
OCT2 DBD (POU domain) [11] = target: T1, OCT2 DBD (POU domain); assay: fluorescence anisotropy; 0.30 M Na+, 1 U poly[d(I-C)]; FP: 5 nM probe, 10 mM Bis-Tris pH 6.5, 0.01% BSA, 0.15-0.35 M NaCl, 25 C overnight, Hill fit with nH = 2 (macroscopic KD of dimer); EMSA: 10 nM DNA, PBS, 25 C o; conditions: protein: recombinant; tags: N-terminal His6 removed by thrombin; chain copies: 2; label: 5'-HEX; blunt; self-complementary, 2 copies of the strand
OCT2 DBD (POU domain) [12] = target: T1, OCT2 DBD (POU domain); assay: fluorescence anisotropy; 0.30 M Na+, no poly[d(I-C)]; FP: 5 nM probe, 10 mM Bis-Tris pH 6.5, 0.01% BSA, 0.15-0.35 M NaCl, 25 C overnight, Hill fit with nH = 2 (macroscopic KD of dimer); EMSA: 10 nM DNA, PBS, 25 C o; conditions: protein: recombinant; tags: N-terminal His6 removed by thrombin; chain copies: 2; label: 5'-HEX; blunt; self-complementary, 2 copies of the strand
OCT2 DBD (POU domain) [13] = target: T1, OCT2 DBD (POU domain); assay: fluorescence anisotropy; 0.175 M Na+, 1 U poly[d(I-C)]; FP: 5 nM probe, 10 mM Bis-Tris pH 6.5, 0.01% BSA, 0.15-0.35 M NaCl, 25 C overnight, Hill fit with nH = 2 (macroscopic KD of dimer); EMSA: 10 nM DNA, PBS, 25 C o; conditions: protein: recombinant; tags: N-terminal His6 removed by thrombin; chain copies: 2; label: 5'-HEX; blunt; self-complementary, 2 copies of the strand

| Binder | stoichiometry N [1] | Kd (OCT2 DBD (POU domain) [2]) [nM] | Kd (OCT2 DBD (POU domain) [3]) [nM] | Kd (OCT2 DBD (POU domain) [4]) [nM] | Kd (OCT2 DBD (POU domain) [5]) [nM] | Kd (OCT2 DBD (POU domain) [6]) [nM] | Kd (OCT2 DBD (POU domain) [7]) [nM] | Kd (OCT2 DBD (POU domain) [8]) [nM] | Kd (OCT2 DBD (POU domain) [9]) [nM] | Kd (OCT2 DBD (POU domain) [10]) [nM] | Kd (OCT2 DBD (POU domain) [11]) [nM] | Kd (OCT2 DBD (POU domain) [12]) [nM] | Kd (OCT2 DBD (POU domain) [13]) [nM] |
| --- | --- | --- | --- | --- | --- | --- | --- | --- | --- | --- | --- | --- | --- |
| OCT2 DBD (DNA-binding domain, POU domain, of human POU factor OCT2) (domain or fragment, UniProt P09086 195-357, looked up, Cloned into NdeI/BamHI of pET15b; residues of the vector may be left at the N-terminus after thrombin cleavage (surmised); the linker is not resolved in the structure; also called POU2F2; OCT DBD; source: E. coli BL21(DE3)pLysS, purified (Ni-NTA, thrombin cleavage, Sepharose SP, Superdex 75); not shown: His6, N-terminal, cleaved) EEPSDLEELEQFARTFKQRRIKLGFTQGDVGLAMGKLYGNDFSQTTISRFEALNLSFKNMCKLKPLLEKWLNDAETMSVDSSLPSPNQLSSPSLGFDGLPGRRRKKRTSIETNVRFALEKSFLANQKPTSEEILLIAEQLHMEKEVIRVWFCNRRQKEKRINP | 2 |  |  |  |  |  |  |  |  |  |  |  |  |
| MORE 22-bp, HEX-labelled (dsDNA) DNA 1: TCCTCATGCATATGCATGAGGA DNA 2: TCCTCATGCATATGCATGAGGA |  | 1200 ± 300 | 3.8 ± 1.4 | 16 ± 7 | 88 ± 18 | 41 ± 13 | 5.5 ± 1.3 | 9.7 ± 3.7 | 29 ± 9 | 190 ± 60 | 71 ± 19 | 560 ± 100 | 11 ± 4 |
